According to paper PMC5414002 (mBio, 2017):

Molecular target: the molecule itself
Experiment: cryo-EM structure; EcFtsZ filaments, 0.5 mg/ml in 50 mM HEPES-KOH, 100 mM potassium acetate, 5 mM magnesium acetate, pH 7.7, 20°C, 0.1 mM GMPCPP; helical reconstruction in RELION

B1: Full-length, untagged wild-type Escherichia coli FtsZ (natural protein, UniProt P0A9A6 1-383, looked up)
chain: MFEPMELTNDAVIKVIGVGGGGGNAVEHMVRERIEGVEFFAVNTDAQALRKTAVGQTIQIGSGITKGLGAGANPEVGRNAADEDRDALRAALEGADMVFIAAGMGGGTGTGAAPVVAEVAKDLGILTVAVVTKPFNFEGKKRMAFAEQGITELSKHVDSLITIPNDKLLKVLGRGISLLDAFGAANDVLKGAVQGIAELITRPGLMNVDFADVRTVMSEMGYAMMGSGVASGEDRAEEAAEMAISSPLLEDIDLSGARGVLVNITAGFDLRLDEFETVGNTIRAFASDNATVVIGTSLDPDMNDELRVTVVATGIGMDKRPEITLVTNKQVQQPVMDRYQQHGMAPLTQEQKPVAKVVNDNAPQTAKEPDYLDIPAFLRKQAD
notes: also called EcFtsZ; source: E. coli C41(DE3), purified (GTP- and calcium-induced precipitation, anion exchange)
- binding result: binds
